# B1: cortactin NtA (peptide)
# chain: MWKASAGHAVSITQDDGGADDWETDPDFVNDVSEKEQRWGAKTVQGSGHQEHINIHKLRENVFQEHQTLKEKELETGPKASHGY
# B2: chemically crosslinked WASP VCA (xlWASP VCA) (other)
# chain: GGRGALLDQIRQGIQLNKTPGAPESSALQPPPQSSEGLVGALMHVMQKRSRAIHSSDEGEDQAGDEDEDDEWDD
# modifications: chemically crosslinked to the second copy (crosslinker and site not shown)
# Biological target: Arp2/3 complex (UniProt P61158 1-418)
# Assay: fluorescence polarisation
row,Binder,Kd [nM]
1,B1,17
2,B2,70
